Experimental data reported in patent US12410253B2, “Compositions comprising anti-NRP2 antibodies” (aTyr Pharma, Inc., priority 2019, dated 2025).

T1: NRP2/KDR(VEGFR2) (Homo sapiens, UniProt O60462)
T1 construct: The complete extracellular domain and transmembrane helices of NRP2a (version 2), NRP2b (version 5); expressed in transfected cells; host or cells: Expi293, transient co-transfection
T1 sequence (O60462 23-859 isoform O60462-3 limits assumed): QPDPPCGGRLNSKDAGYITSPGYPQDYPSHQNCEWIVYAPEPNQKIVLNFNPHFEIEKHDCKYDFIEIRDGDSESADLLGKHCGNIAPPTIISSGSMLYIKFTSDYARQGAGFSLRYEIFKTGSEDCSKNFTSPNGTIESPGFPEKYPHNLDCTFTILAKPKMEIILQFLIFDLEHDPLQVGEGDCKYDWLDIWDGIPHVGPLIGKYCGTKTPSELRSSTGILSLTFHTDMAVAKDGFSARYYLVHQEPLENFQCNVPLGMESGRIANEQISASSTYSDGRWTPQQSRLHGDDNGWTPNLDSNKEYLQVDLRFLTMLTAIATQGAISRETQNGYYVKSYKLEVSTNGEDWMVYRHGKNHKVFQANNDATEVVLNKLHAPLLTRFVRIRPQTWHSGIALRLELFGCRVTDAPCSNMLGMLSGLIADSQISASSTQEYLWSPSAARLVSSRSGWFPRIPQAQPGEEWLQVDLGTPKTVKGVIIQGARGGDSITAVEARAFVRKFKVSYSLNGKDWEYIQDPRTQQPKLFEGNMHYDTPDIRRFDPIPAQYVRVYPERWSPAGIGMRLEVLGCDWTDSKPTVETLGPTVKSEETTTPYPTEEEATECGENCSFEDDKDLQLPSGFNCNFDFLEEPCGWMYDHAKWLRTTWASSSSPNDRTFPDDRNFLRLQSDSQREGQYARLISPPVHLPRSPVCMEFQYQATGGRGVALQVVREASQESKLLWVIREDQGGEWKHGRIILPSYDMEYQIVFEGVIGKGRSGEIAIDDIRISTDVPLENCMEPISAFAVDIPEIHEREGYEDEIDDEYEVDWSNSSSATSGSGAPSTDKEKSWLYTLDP

B1: aNRP2-10v10: humanized, affinity matured anti-NRP2 antibody, target domain b1, VEGF-C blocking; VH SEQ ID NO: 49, VL SEQ ID NO: 50 (antibody, V domains shown)
VH: EVQLVQSGAEVKKPGATVKISCKVSGFNIKDYYVHWVQQAPGKGLEWMGRIDVEDDETKYAPKFQGRVTITADTSTDTAYMELSSLRSEDTAVYYCATPIYGAREAWFAYWGQGTLVTVSS
VL: DIQMTQSPSSLSASVGDRVTITCTASSSVSSSYLHWYQQKPGKAPKLLIYRTSNLASGVPSRFSGSGSGTDFTLTISSLQPEDFATYYCHQYYRSPPTFGGGTKVEIK
modifications: Variable heavy chain region; Light chain variable region
B2: aNRP2-11v7: humanized, affinity matured anti-NRP2 antibody, target domain b2; VH SEQ ID NO: 51, VL SEQ ID NO: 52 (antibody, V domains shown)
VH: QVQLVQSGAEVKKPGASVKVSCKASGYTFTSFGISWVRQAPGQGLEWIGEIYPRSGNTYYNENFKGRATMTADKSTSTAYMELRSLRSDDTAVYYCARSSGYYGSTPFPYWGQGTLVTVSS
VL: DIQMTQSPSSLSASVGDRVTITCRASQDISNYLNWYQQKPGKAVKLLIYYTSRLHSGVPSRFSGSGSGTDYTFTISSLQPEDIATYYCQQGNTLPWTFGGGTKVEIK
modifications: Variable heavy chain region; Light chain variable region

Legend:
A549 cells = assay: A549 NSCLC xenograft in Nu/J mice, combination with 5-FU; assay type: in vivo; settings: for tumor growth in combination with 5-FU: 12.5 mg/kg IP BIW plus 5-FU 2.5 mg/kg TIW from day 16, significant on day 51 vs control IgG/5-FU
Method: This study aimed to investigate the in vivo anticancer potential of aNRP2-10v10 in combination with fluorouracil (5-FU) in a human xenograft mouse model using A549 cells (NSCLC cancer model).
Treatment Regimen. Twenty (20) Nu/J mice (Jackson Laboratory, female, 6-8 wks old) were used in this study. […] The dosing regimen is shown in Table E7 below; In brief animals received injections of 12.5 mg/kg of aNRP2-10 or IgG control, which were administered to mice intraperitoneally twice a week according to the protocol below (Table E7). Both groups also received 2.5 mg/kg of 5-FU three times a week.
Human A549 cell line was purchased from ATCC.

BT549 = assay: 3D soft agar colony formation assay, BT549; assay type: cell-based, human
Method: Anchorage-independent growth is the ability of transformed cells to grow independently of a solid surface, and is a hallmark of carcinogenesis. The soft agar colony formation assay is a well-established method for characterizing this capability in vitro (J Vis Exp. 2014; (92): 51998). Human triple negative breast cancer (TNBC) cell lines MDA-MB-231 (HTB-26™) and BT549 (HTB122™) were obtained from ATCC and employed in this assay.
MDA-MB-231 was cultured in 1×RPMI media containing 10% FBS and 1% P/S. BT549 was cultured in 1×RPMI media containing 10% FBS, 0.023 U/mL insulin and 1% P/S. Cells were recovered and expanded from frozen stocks for 2-3 passages. The NRP2-high population was sorted out on FACS equipment following cell surface staining by a fluorophore-conjugated anti-NRP2 antibody. […] The chemo drug Cisplatin or 5-FU was added at a final concentration of IC30 or 1/2 IC30, based on a preliminary test that determined their inhibition curves on MDA-MB-231 cells, in combination with the antibodies a-NRP2-10v10 or its isotype control hIgG4 at 100 nM. […] After 6 or 9 days of treatment, the soft agar matrix was dissolved and the formed cell colonies were quantified using CyQuant dye diluted in PBS (provided in the Cell Biolab kit), which produced a fluorescence signal proportional to viable cells.

NRP2/KDR(VEGFR2) = target: T1, NRP2/KDR(VEGFR2); assay: Split-luciferase receptor dimerization assay, NRP2/KDR with VEGF-A; assay type: cell-based; settings: antibody 100 nM; ligand induced dimerization
Method: To further extend the assessment of the biological activity of the anti-NRP2 antibodies, their activity was assessed in a receptor dimerization assay. In brief, vectors encoding a split luciferase pBiT1.1 and pBiT2.1 were obtained from Promega corporation (Madison, Wisconsin). The complete extracellular domain and transmembrane helices of NRP2a (version 2), NRP2b (version 5) (See table N1), FLT4 (VEGFR3), KDR (VEGFR2), and plexin A1 (PLXNA1) were cloned into the vectors and screened for optimal orientation, receptor density, and ligand induced dimerization, following established methods. […] Cells were counted, and 100,000 live cells were plated in a well of a white luminometer plate in Live Cell Imaging Solution (Fisher). Nano-Glo assay substrate (Promega) was added, and the plate was read on a Glomax 96 luminometer at room temperature to establish baseline luminescence. Antibodies were added to the well at 100 nM and the plate was again read to establish a new baseline and monitor the effects of the antibodies on spontaneous receptor dimerization. Depending on the receptor pair, typically 200 nM SEMA3F-p95 (aTyr Pharma), 2 nM VEGF-C(R&D Systems, Minnesota), or 2 nM VEGF165 (R&D Systems, Minnesota) were then added and the plate was again read to measure dimerization of receptors. […]

Molecule	tumor growth in combination with 5-FU (A549 cells)	tumor growth in combination with 5-FU (A549 cells; listed as aNRP2-10)	toxicity by clinical observations and body weights (A549 cells; combination with 5-FU)	colony formation, soft agar, antibody treatment alone (BT549) (BT549; aNRP2-10v10 treatment alone)	colony formation by BT549 cells, soft agar (BT549; antibody 100 nM in combination with Cisplatin or 5-FU at certain doses, compared to hIgG4 control)	effect on NRP2-KDR dimerization (in words) (NRP2/KDR(VEGFR2))
B1	enhances activity of the chemotherapeutic drug 5-FU	performed better than 5-FU with control IgG	No obvious increased toxicity	no obvious effect	significantly more pronounced	–
B2	–	–	–	–	–	increased the ligand induced dimerization signal
